Source: patent US20210054084A1 (published 2021)

Target: T1, recombinant human CD25 his tagged (UniProt P01589 22-213)
T1 chain: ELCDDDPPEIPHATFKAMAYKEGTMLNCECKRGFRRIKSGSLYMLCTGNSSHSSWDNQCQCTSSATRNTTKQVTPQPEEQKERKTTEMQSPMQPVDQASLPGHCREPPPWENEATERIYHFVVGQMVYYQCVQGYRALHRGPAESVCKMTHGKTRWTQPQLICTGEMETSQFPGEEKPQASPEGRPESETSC
Assay: BLI (Octet)

B1: Antibody 1 as human IgG1 expressed in mammalian cells (antibody, V domains shown)
VH: EVQLVESGGGLIQPGGSLRLSCAASGFTLDSYGVSWVRQAPGKGLEWVGVTSSGGSAYYADSVKGRFTISRDNSKNTLYLQMNSLRAEDTAVYYCARDRYVYTGGYLYHYGMDLWGQGTLVTVSS
VL: DIQMTQSPSSLSASVGDRVTITCRASQSISDYLAWYQQKPGKVPKLLIYAASTLPFGVPSRFSGSGSGTDFTLTISSLQPEDVATYYCQGTYDSSDWYWAFGGGTKVEIK
Kd: 0.8 nM
